Test results published in US20090098103A1.

Key:
Assay in all cases: cell-based or functional assay
[1] = target: FVIIa variant CB554 D196K (human) (UniProt P08709)
[2] = target: FVIIa variant CB555 D196R (human) (UniProt P08709)
[3] = target: FVIIa variant CB557 K197D (human) (UniProt P08709)
[4] = target: FVIIa variant CB558 K197E (human) (UniProt P08709)
[5] = target: FVIIa variant CB560 K197L (human) (UniProt P08709)
[6] = target: FVIIa variant CB563 K199E (human) (UniProt P08709)
[7] = target: FVIIa variant CB564 K199A (human) (UniProt P08709)
[8] = target: FVIIa variant CB565 T239A (human) (UniProt P08709)
[9] = target: FVIIa variant CB566 R290D (human) (UniProt P08709)
[10] = target: FVIIa variant CB569 K341R (human) (UniProt P08709)
[11] = target: FVIIa variant CB579 D196R/R290E (human) (UniProt P08709)
[12] = target: FVIIa variant CB586 D196R/K197E/K199E (human) (UniProt P08709)
[13] = target: FVIIa variant CB587 D196K/K197E/K199E (human) (UniProt P08709)
[14] = target: FVIIa variant CB589 D196R/K197M/K199E (human) (UniProt P08709)
[15] = target: FVIIa variant CB594 V158D/E296V/M298Q/K337A (human) (UniProt P08709)
[16] = target: FVIIa variant CB595 K197I (human) (UniProt P08709)
[17] = target: FVIIa variant CB597 K197F (human) (UniProt P08709)
[18] = target: FVIIa variant CB598 K197W (human) (UniProt P08709)
[19] = target: FVIIa variant CB600 D196F (human) (UniProt P08709)
[20] = target: FVIIa variant CB602 D196W (human) (UniProt P08709)
[21] = target: FVIIa variant CB605 G237W (human) (UniProt P08709)
[22] = target: FVIIa variant CB608 G237V (human) (UniProt P08709)
[23] = target: FVIIa variant CB609 K341Q (human) (UniProt P08709)
[24] = target: FVIIa variant CB617 D196V/K197E (human) (UniProt P08709)
[25] = target: FVIIa variant CB637 K197E/K341Q (human) (UniProt P08709)
[26] = target: FVIIa variant CB688 K197E/K199E (human) (UniProt P08709)
[27] = target: FVIIa variant CB692 K197E/G237V/M298Q/K341Q (human) (UniProt P08709)
[28] = target: FVIIa variant CB696 G237V/M298Q/K341Q (human) (UniProt P08709)
[29] = target: FVIIa variant CB697 R290N (human) (UniProt P08709)

How did the IC50 of TFPI inhibition of FVIIa/TF [1] turn out when “Human Recombinant TFPI (R&D Systems) (from UniProt P10646 29-282)” was run?
The IC50 of TFPI inhibition of FVIIa/TF was 45 nM.

What about the TFPI fold resistance (fold vs wild-type FVIIa) [1] of the same substance?
Its TFPI fold resistance (fold vs wild-type FVIIa) is 0.6.

What about the pIC50 of TFPI inhibition of FVIIa/TF [1] of the same substance?
Its pIC50 of TFPI inhibition of FVIIa/TF is 7.4.

What about the IC50 of TFPI inhibition of FVIIa/TF [2] of the same substance?
The IC50 of TFPI inhibition of FVIIa/TF was 37 nM.

What about the TFPI fold resistance (fold vs wild-type FVIIa) [2] of the same substance?
Its TFPI fold resistance (fold vs wild-type FVIIa) is 0.5.

What about the pIC50 of TFPI inhibition of FVIIa/TF [2] of the same substance?
The pIC50 of TFPI inhibition of FVIIa/TF was 7.4.

And the IC50 of TFPI inhibition of FVIIa/TF [3]?
The IC50 of TFPI inhibition of FVIIa/TF was 220 nM.

And the TFPI fold resistance (fold vs wild-type FVIIa) [3]?
Its TFPI fold resistance (fold vs wild-type FVIIa) is 3.

What about the pIC50 of TFPI inhibition of FVIIa/TF [3] of the same substance?
Its pIC50 of TFPI inhibition of FVIIa/TF is 6.7.

And the IC50 of TFPI inhibition of FVIIa/TF [4]?
The IC50 of TFPI inhibition of FVIIa/TF was 310 nM.

What about the TFPI fold resistance (fold vs wild-type FVIIa) [4] of the same substance?
The TFPI fold resistance (fold vs wild-type FVIIa) was 1.3.

What about the pIC50 of TFPI inhibition of FVIIa/TF [4] of the same substance?
Its pIC50 of TFPI inhibition of FVIIa/TF is 6.5.

And the IC50 of TFPI inhibition of FVIIa/TF [5]?
Its IC50 of TFPI inhibition of FVIIa/TF is 1100 nM.

What about the TFPI fold resistance (fold vs wild-type FVIIa) [5] of the same substance?
Its TFPI fold resistance (fold vs wild-type FVIIa) is 16.

What about the pIC50 of TFPI inhibition of FVIIa/TF [5] of the same substance?
Its pIC50 of TFPI inhibition of FVIIa/TF is 5.9.

What about the IC50 of TFPI inhibition of FVIIa/TF [6] of the same substance?
Its IC50 of TFPI inhibition of FVIIa/TF is 33 nM.

And the TFPI fold resistance (fold vs wild-type FVIIa) [6]?
The TFPI fold resistance (fold vs wild-type FVIIa) was 1.3.

And the pIC50 of TFPI inhibition of FVIIa/TF [6]?
Its pIC50 of TFPI inhibition of FVIIa/TF is 7.5.

What about the IC50 of TFPI inhibition of FVIIa/TF [7] of the same substance?
Its IC50 of TFPI inhibition of FVIIa/TF is 68 nM.

What about the TFPI fold resistance (fold vs wild-type FVIIa) [7] of the same substance?
The TFPI fold resistance (fold vs wild-type FVIIa) was 0.9.

And the pIC50 of TFPI inhibition of FVIIa/TF [7]?
The pIC50 of TFPI inhibition of FVIIa/TF was 7.2.

What about the IC50 of TFPI inhibition of FVIIa/TF [8] of the same substance?
The IC50 of TFPI inhibition of FVIIa/TF was 320 nM.

What about the TFPI fold resistance (fold vs wild-type FVIIa) [8] of the same substance?
Its TFPI fold resistance (fold vs wild-type FVIIa) is 4.5.

And the pIC50 of TFPI inhibition of FVIIa/TF [8]?
The pIC50 of TFPI inhibition of FVIIa/TF was 6.5.

What about the IC50 of TFPI inhibition of FVIIa/TF [9] of the same substance?
The IC50 of TFPI inhibition of FVIIa/TF was 240 nM.

And the TFPI fold resistance (fold vs wild-type FVIIa) [9]?
The TFPI fold resistance (fold vs wild-type FVIIa) was 3.3.

And the pIC50 of TFPI inhibition of FVIIa/TF [9]?
The pIC50 of TFPI inhibition of FVIIa/TF was 6.6.

What about the IC50 of TFPI inhibition of FVIIa/TF [10] of the same substance?
Its IC50 of TFPI inhibition of FVIIa/TF is 300 nM.

What about the TFPI fold resistance (fold vs wild-type FVIIa) [10] of the same substance?
Its TFPI fold resistance (fold vs wild-type FVIIa) is 4.1.

And the pIC50 of TFPI inhibition of FVIIa/TF [10]?
The pIC50 of TFPI inhibition of FVIIa/TF was 6.5.

What about the IC50 of TFPI inhibition of FVIIa/TF [11] of the same substance?
The IC50 of TFPI inhibition of FVIIa/TF was 28 nM.

What about the TFPI fold resistance (fold vs wild-type FVIIa) [11] of the same substance?
Its TFPI fold resistance (fold vs wild-type FVIIa) is 0.4.

And the pIC50 of TFPI inhibition of FVIIa/TF [11]?
The pIC50 of TFPI inhibition of FVIIa/TF was 7.6.

What about the IC50 of TFPI inhibition of FVIIa/TF [12] of the same substance?
Its IC50 of TFPI inhibition of FVIIa/TF is 13 nM.

And the TFPI fold resistance (fold vs wild-type FVIIa) [12]?
Its TFPI fold resistance (fold vs wild-type FVIIa) is under 0.3.

And the pIC50 of TFPI inhibition of FVIIa/TF [12]?
The pIC50 of TFPI inhibition of FVIIa/TF was 7.9.

What about the IC50 of TFPI inhibition of FVIIa/TF [13] of the same substance?
The IC50 of TFPI inhibition of FVIIa/TF was 20 nM.

And the TFPI fold resistance (fold vs wild-type FVIIa) [13]?
Its TFPI fold resistance (fold vs wild-type FVIIa) is 0.3.

What about the pIC50 of TFPI inhibition of FVIIa/TF [13] of the same substance?
The pIC50 of TFPI inhibition of FVIIa/TF was 7.7.

And the IC50 of TFPI inhibition of FVIIa/TF [14]?
The IC50 of TFPI inhibition of FVIIa/TF was 44 nM.

And the TFPI fold resistance (fold vs wild-type FVIIa) [14]?
Its TFPI fold resistance (fold vs wild-type FVIIa) is 0.6.

And the pIC50 of TFPI inhibition of FVIIa/TF [14]?
Its pIC50 of TFPI inhibition of FVIIa/TF is 7.4.

And the IC50 of TFPI inhibition of FVIIa/TF [15]?
The IC50 of TFPI inhibition of FVIIa/TF was 22 nM.

What about the TFPI fold resistance (fold vs wild-type FVIIa) [15] of the same substance?
Its TFPI fold resistance (fold vs wild-type FVIIa) is 0.3.

What about the pIC50 of TFPI inhibition of FVIIa/TF [15] of the same substance?
Its pIC50 of TFPI inhibition of FVIIa/TF is 7.7.

And the TFPI fold resistance (fold vs wild-type FVIIa) [16]?
Its TFPI fold resistance (fold vs wild-type FVIIa) is 0.8.

And the TFPI fold resistance (fold vs wild-type FVIIa) [17]?
The TFPI fold resistance (fold vs wild-type FVIIa) was under 0.3.

And the TFPI fold resistance (fold vs wild-type FVIIa) [18]?
The TFPI fold resistance (fold vs wild-type FVIIa) was under 0.3.

And the TFPI fold resistance (fold vs wild-type FVIIa) [19]?
Its TFPI fold resistance (fold vs wild-type FVIIa) is under 0.3.

What about the TFPI fold resistance (fold vs wild-type FVIIa) [20] of the same substance?
Its TFPI fold resistance (fold vs wild-type FVIIa) is under 0.3.

And the TFPI fold resistance (fold vs wild-type FVIIa) [21]?
The TFPI fold resistance (fold vs wild-type FVIIa) was under 0.3.

What about the TFPI fold resistance (fold vs wild-type FVIIa) [22] of the same substance?
The TFPI fold resistance (fold vs wild-type FVIIa) was 0.8.

What about the TFPI fold resistance (fold vs wild-type FVIIa) [23] of the same substance?
The TFPI fold resistance (fold vs wild-type FVIIa) was 12.2.

And the TFPI fold resistance (fold vs wild-type FVIIa) [24]?
Its TFPI fold resistance (fold vs wild-type FVIIa) is under 0.3.

And the TFPI fold resistance (fold vs wild-type FVIIa) [25]?
Its TFPI fold resistance (fold vs wild-type FVIIa) is 80.7.

And the TFPI fold resistance (fold vs wild-type FVIIa) [26]?
The TFPI fold resistance (fold vs wild-type FVIIa) was 2.1.

And the TFPI fold resistance (fold vs wild-type FVIIa) [27]?
Its TFPI fold resistance (fold vs wild-type FVIIa) is 15.2.

What about the TFPI fold resistance (fold vs wild-type FVIIa) [28] of the same substance?
Its TFPI fold resistance (fold vs wild-type FVIIa) is 3.2.

What about the TFPI fold resistance (fold vs wild-type FVIIa) [29] of the same substance?
Its TFPI fold resistance (fold vs wild-type FVIIa) is 1.5.
